The data set deals with T1, ABH2 WT (human, UniProt Q6NS38 1-261).
T1 sequence: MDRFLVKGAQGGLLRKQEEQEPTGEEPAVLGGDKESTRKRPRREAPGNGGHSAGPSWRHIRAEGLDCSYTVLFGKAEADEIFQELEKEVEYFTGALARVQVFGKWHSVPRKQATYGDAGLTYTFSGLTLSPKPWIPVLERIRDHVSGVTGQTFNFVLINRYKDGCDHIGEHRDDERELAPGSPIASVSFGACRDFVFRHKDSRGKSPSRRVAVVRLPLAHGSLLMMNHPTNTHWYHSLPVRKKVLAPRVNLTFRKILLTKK
The experiment in a line: EMSA; 0.5 mM αKG, 10 mM Mg2+, 2 mM ascorbate; EMSA: 50 mM Tris-HCl pH 8.0, 50 mM KCl, 10 mM MgCl2, 0.5 mM αKG, 2 mM Na ascorbate; 1.2 µM DNA, 0.4-12.8 µM protein; 10 min 37 °C then 5 min on ice; 10% native. The settings on record: protein: recombinant; tags: N-terminal His6; label: 5'-FAM on strand 1; blunt.

B1: m3C (dsDNA)
DNA 1: AGTTCAATGATCTTCAT
DNA 2: ATGAAGATCATTGAACT
modifications: N3-methylcytosine at position 12 of strand 1
Consider B1, for which the dissociation constant (Kd) worked out at 3500 ± 100 nM.

B2: m1A (dsDNA)
DNA 1: AGTTCAATGATCTTCAT
DNA 2: ATGAAGATCATTGAACT
modifications: N1-methyladenine at position 10 of strand 1
In the case of B2, the Kd was 2450 ± 70 nM.

Source of the values: paper PMC10377887, “Individual Contributions of Amido Acid Residues Tyr122, Ile168, and Asp173 to the Activity and Substrate Specificity of Human DNA Dioxygenase ABH2”.
